Assay results: publication PMC13042586, “ATP13A2 is involved in intracellular polyamine transport in lung epithelial cells” (FEBS Open Bio, 2025)

Substrate: NCCCCNCCCN
Assay: polyamine-dependent ATPase activity (Pi release, molybdate), Hill fit
Format: biochemical, Homo sapiens
Settings: microsomes of overexpressing H441 cells, 2 mM ATP, 5 mM MgCl2, 20 mM Tris-HCl pH 8.0, 10% glycerol, 1 mM DTT, 37 °C, 30 min, Hill coefficient n = 1, constant printed as Kd but from ATPase stimulation
Source text: polyamine-dependent ATPase activity (Pi release, molybdate), Hill fit on ATP13A2 | Polyamine dependence of ATP13A2 was fitted to the Hill equation

B1: ATP13A2 (Homo sapiens) (protein)
chain: MSADSSPLVGSTPTGYGTLTIGTSIDPLSSSVSSVRLSGYCGSPWRVIGYHVVVWMMAGIPLLLFRWKPLWGVRLRLRPCNLAHAETLVIEIRDKEDSSWQLFTVQVQTEAIGEGSLEPSPQSQAEDGRSQAAVGAVPEGAWKDTAQLHKSEEAVSVGQKRVLRYYLFQGQRYIWIETQQAFYQVSLLDHGRSCDDVHRSRHGLSLQDQMVRKAIYGPNVISIPVKSYPQLLVDEALNPYYGFQAFSIALWLADHYYWYALCIFLISSISICLSLYKTRKQSQTLRDMVKLSMRVCVCRPGGEEEWVDSSELVPGDCLVLPQEGGLMPCDAALVAGECMVNESSLTGESIPVLKTALPEGLGPYCAETHRRHTLFCGTLILQARAYVGPHVLAVVTRTGFCTAKGGLVSSILHPRPINFKFYKHSMKFVAALSVLALLGTIYSIFILYRNRVPLNEIVIRALDLVTVVVPPALPAAMTVCTLYAQSRLRRQGIFCIHPLRINLGGKLQLVCFDKTGTLTEDGLDVMGVVPLKGQAFLPLVPEPRRLPVGPLLRALATCHALSRLQDTPVGDPMDLKMVESTGWVLEEEPAADSAFGTQVLAVMRPPLWEPQLQAMEEPPVPVSVLHRFPFSSALQRMSVVVAWPGATQPEAYVKGSPELVAGLCNPETVPTDFAQMLQSYTAAGYRVVALASKPLPTVPSLEAAQQLTRDTVEGDLSLLGLLVMRNLLKPQTTPVIQALRRTRIRAVMVTGDNLQTAVTVARGCGMVAPQEHLIIVHATHPERGQPASLEFLPMESPTAVNGVKDPDQAASYTVEPDPRSRHLALSGPTFGIIVKHFPKLLPKVLVQGTVFARMAPEQKTELVCELQKLQYCVGMCGDGANDCGALKAADVGISLSQAEASVVSPFTSSMASIECVPMVIREGRCSLDTSFSVFKYMALYSLTQFISVLILYTINTNLGDLQFLAIDLVITTTVAVLMSRTGPALVLGRVRPPGALLSVPVLSSLLLQMVLVTGVQLGGYFLTLAQPWFVPLNRTVAAPDNLPNYENTVVFSLSSFQYLILAAAVSKGAPFRRPLYTNVPFLVALALLSSVLVGLVLVPGLLQGPLALRNITDTGFKLLLLGLVTLNFVGAFMLESVLDQCLPACLRRLRPKRASKKRFKQLERELAEQPWPPLPAGPLR
notes: full-length with C-terminal TEV site, Halo tag and 6xHis (tags kept; ATP13A2-Halo, theoretical mass 165 K), adenovirus-mediated overexpression in NCI-H441 cells, microsome fraction
K0.5: 1.00 mM
